“Also recorded” adds a separate entry of the source.

The subject of one series is human KIF20A transcript. The experiment in a line: shRNA screening by dual luciferase reporter assay. Type of series: cell-based. Conditions: transfected HEK293 cells, shRNA in pNUT vector, cDNA target in psi-CHECK, 48 hours. As to the method: FIGS. 10a-10c show generation of human KIF20A shRNAs and stable Daoy cell lines. […] Candidate shRNAs in pNUT vector were first screened with a cDNA target cloned in psi-CHECK vector in transfected HEK293 cells, using a dual luciferase reporter assay and their cDNA target in psi-CHECK Vector (Promega). Six candidate shKIF20As were tested with this assay. […] Data are mean±S.D. **P<0.01, ***P<0.001 (two-way ANOVA).
DNA Constructs, Lentivirus Production: Lentiviral transfer plasmids used in this study include: Hiv7CMV-Cre-myc-2A-GFP (Addgene #117148), Hiv7CMV-GFP, Hiv7CMV-GFP-IRES-Luciferase, as well as Tet-on inducible shRNA plasmids Tet-pLKO-hushKIF20A726 or Tet-pLKO-hushKIF20A181-Puro (shRNA sequences were cloned into pLKO-Tet-On plasmid, Addgene #21915 at Agel/EcoRI sites). […]
shRNA design and screening: Potential shRNA sequences were selected using web-based design tool (rnaidesigner.thermofisher.com/rnaiexpress/design.do). shRNAs were expressed under the control of a mouse U6 promoter in pNUTs vector which additionally contains a ubiquitin promoter-EGFP expression cassette. Candidate shRNAs in pNUTs and cDNA target in psi-CHECK were co-transfected into HEK293 cells in triplicates; 48 hours later, the firefly and Renilla Luciferase values were determined with Promega's Dual-Luciferase® Reporter Assay System (Promega, E1910). […]

A further series concerns Daoy human MB cells. As to the kind of experiment: Growth assay of Daoy cells. Conditions: parental Daoy cells with or without doxycycline. In kind it is cell-based. As to the method:
Generation of Daoy cell lines with stably integrated Tet-on inducible shRNA expression system: Daoy cells were infected with lentivirus of Tet-on inducible human KIF20A shRNA-726 and GFP-Luciferase prepared from Tet-pLKO-hushKIF20A726 plasmid and Hiv7CMVGFP-IRES-Luciferase plasmid, respectively. The transduced Daoy cells were selected for stable single clones with Puromycin (1 μg/ml, Sigma-Aldrich) and GFP fluorescence signal in DMEM (Invitrogen) with 10% fetal bovine serum. Single clones were picked up by glass cloning cylinders (Sigma-Aldrich) in 10 cm plate.
Growth Assay of tumor cells: Mouse MB cell lines, or Daoy clones stably integrated with Tet-on inducible human KIF20A shRNA-726, or Wild Type Daoy cells, were seeded into multiple wells of 24 well plates (2×10^4 or 1×10^4 cells per well). Cells in quadruplicate were then dissociated and counted using a hemocytometer at consecutive days after initial plating.

The target in another series is T1, RGS3-KIF20A interaction (Mus musculus, UniProt Q9DC04).
T1 construct: mediated by the RGS domain of RGS3
As to the kind of experiment: GST-RGS pulldown experiment. In kind it is binding. Conditions: expression of RBD, GST-RGS pull down.

Series [1] relates to neural progenitor cells (NPCs). As to the kind of experiment: In utero electroporation over-expression in the mouse cortex. In kind it is in vivo. The settings on record: expression plasmid delivered at E13.5 via IUE, brains collected at E15.5. From the text: Expression plasmid of GFP, RBD (RGS-binding domain of mouse KIF20A), or RGS was delivered into the cortices at E13.5 via in utero electroporation (IUE). Brains were collected at E15.5 for analyses. Distribution of transfected cells (GFP+) across the radial domains were scored. […] VZ, ventricular zone; IZ, intermediate zone; CP, cortical plate. Green and blue asterisks indicate P<0.01 (Student's t-test) for CP and SVZ/VZ distributions, respectively.
RGS3-KIF20A interaction is mediated by the RGS domain of RGS3 and the RGS-binding domain (RBD) of KIF20A which is located to amino acids 625-818 of mouse KIF20A sequence (FIG. 13a)^9. […] In this experiment, expression plasmid of GFP, RBD (RGS-binding domain of KIF20A), or RGS was delivered into the cortices at E13.5 via IUE. Brains were collected at E15.5 for analyses. Distribution of transfected cells (GFP+) across the radial domains were scored.

In another series the test system is GISC017 cells. As to the kind of experiment: Cell cycle exit analysis (EdU/Ki67) in GISC017 cells. The settings on record: lentiviral expression of RBD. In kind it is cell-based, human. From the text: To further investigate the relevance of KIF20A in human brain tumors, inhibition of KIF20A in patient-derived GBM-initiating/stem cells (GISCs) was examined. As the ERKS axis functions in different types of brain tumor-initiating/stem cells, data obtained from study of GISCs would be applicable to other brain tumor cell types. Multiple lines of patient-derived GISCs were obtained from Dr. Christine Brown. These low passaged GISCs could be expanded in cultures and could engraft in NSG mice^43, 44. FIG. 11 summarizes the results of testing KIF20A in one GISC line (GISC017) by constitutive expression of a control scrambled shRNA or shKIF20A726 (shRNA targeting hKIF20A) in pNUT vector-based lentiviral expression system. […] In the above cell cycle exit analysis, co-staining of differentiation markers (e.g. βlll-tubulin, DCX, or NeuN) was performed, however, these markers were detected in EdU^+Ki67^− (cells having left the cell cycle) but also in some EdU^+Ki67^+ (cells staying in the cell cycle) cells, which might reflect a technical artefact observed with progenitor/stem cells in culture. […]

In the next series the target is T2, SEPT7 (Mus musculus, UniProt O55131).
T2 sequence (O55131 1-436): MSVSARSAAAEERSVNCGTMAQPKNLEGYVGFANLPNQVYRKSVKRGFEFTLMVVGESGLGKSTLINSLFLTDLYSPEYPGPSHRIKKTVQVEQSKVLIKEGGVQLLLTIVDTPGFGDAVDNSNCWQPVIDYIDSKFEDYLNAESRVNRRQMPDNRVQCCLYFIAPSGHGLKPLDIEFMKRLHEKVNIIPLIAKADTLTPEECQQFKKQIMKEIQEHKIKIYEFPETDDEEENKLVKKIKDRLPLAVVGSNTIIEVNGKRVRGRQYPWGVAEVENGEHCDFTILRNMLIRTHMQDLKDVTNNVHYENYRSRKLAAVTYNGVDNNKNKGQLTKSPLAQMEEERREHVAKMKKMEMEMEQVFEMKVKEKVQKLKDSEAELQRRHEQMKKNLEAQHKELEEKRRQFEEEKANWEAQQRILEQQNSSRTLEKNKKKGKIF
The settings on record: cited from earlier work.

T1 sequence (Q9DC04 841-966 limits assumed): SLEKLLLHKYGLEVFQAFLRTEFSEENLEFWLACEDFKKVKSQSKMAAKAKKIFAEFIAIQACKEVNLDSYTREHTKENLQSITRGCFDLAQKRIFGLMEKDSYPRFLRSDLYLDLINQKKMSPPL

As to “5′-AGTATGGAGAAGGTGAAAG-TTCAAGAGA-CTTTCACCTTCTCCATACT-3′ (AGTATGGAGAAGGTGAAAGTTCAAGAGACTTTCACCTTCTCCATACT; expressed or natural sequence) [shKIF20A181, shRNA targeting human KIF20A transcript]”, the “inhibition of expression of the human KIF20A transcript (luciferase assay)” value with human KIF20A transcript is “significantly inhibit expression of the human KIF20A transcript”.
Turning to `C[C@H]1c2cccc(O)c2C(=O)C2=C(O)[C@]3(O)C(=O)C(C(N)=O)=C(O)[C@@H](N(C)C)[C@@H]3[C@@H](O)[C@@H]21` [doxycycline, reference compound], in the series on Daoy human MB cells, the “growth of parental Daoy cells (cytotoxicity of doxycycline)” value is given as “not affected”.

B1: RBD: RGS-binding domain of KIF20A, amino acids 625-818 of mouse KIF20A sequence; competitive inhibitor for RGS3-KIF20A interaction (protein)
chain: LKILKESLTTFYQEQIQERDEKIEELETLLQEAKQQPAAQQSGGLSLLRRSQRLAASASTQQFQEVKAELEQCKTELSSTTAELHKYQQVLKPPPPAKPFTIDVDKKLEEGQKNIRLLRTELQKLGQSLQSAERACCHSTGAGKLRQALTNCDDILIKQNQTLAELQNNMVLVKLDLQKKAACIAEQYHTVLKL
modifications: left off: small tags and cut ends
Regarding B1, the “inhibition of binding of GST-RGS and KIF20A” value with RGS3-KIF20A interaction is “inhibited binding between RGS3 and mouse KIF20A”; with RGS3-KIF20A interaction (listed as Flag-RBD), “inhibited binding of GST-RGS and KIF20A in a dose dependent manner”; with RGS3-KIF20A interaction (listed as KIF20A625-818), “block interaction between KIF20A and RGS3”. In addition, the “neuronal differentiation of neural progenitor cells” value in series [1] was “caused precocious neuronal differentiation of the affected NPCs; also recorded: caused neural progenitor cell differentiation and subsequent outward migration of newly born neurons into the IZ and CP regions”; in series [1] (listed as KIF20A625-818), “cause neuronal differentiation”. Further, the cell cycle exit result in the series on GISC017 cells is on record as “induce cell cycle exit; also recorded: caused cell cycle exit”. Further, in the series with SEPT7, the “interaction with SEPT7” value was “interacts with SEPT7”.

These data come from patent US20240240189A1, “CANCER TREATMENT BY TARGETING PROTEINS OR INTERACTIONS OF EPHRINB-RGS3-KIF20A-SEPT7 AXIS” (CITY OF HOPE, priority 2021, published 2024).
